How the values were obtained:
[1] = biological target: T1, recombinant DR3 molecule (R&D) (UniProt Q93038 25-199, limits assumed); experiment: direct ELISA on coated recombinant DR3, detection streptavidin-HRP, absorbance 450 nm [panel DR3]
T1 sequence (looked up): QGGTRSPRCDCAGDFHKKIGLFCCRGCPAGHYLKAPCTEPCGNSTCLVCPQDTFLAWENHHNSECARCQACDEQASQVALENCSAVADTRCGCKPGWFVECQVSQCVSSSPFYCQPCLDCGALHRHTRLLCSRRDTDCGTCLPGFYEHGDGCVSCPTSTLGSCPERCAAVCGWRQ
Method: (§1) FIG. 13. A dose-response of various antibodies was incubated on various receptors, members of Tumor Necrosis Factor Receptor family, then detected with Streptavidin coupled with Horseradish Peroxidase enzyme. […] Each data point is the mean of duplicate values except for control curves that were performed in simplicate.
(§2) The experiment was conducted following the same protocol than previously described. […] These molecules were all coated at 2 μg/ml in PBS overnight at 4° C.

rat OX40-Fc = rat OX40-Fc (rat); experiment: ELISA on coated rat OX40-Fc
rat OX40-Fc (rat), sequence (chain, as listed by the source limits assumed): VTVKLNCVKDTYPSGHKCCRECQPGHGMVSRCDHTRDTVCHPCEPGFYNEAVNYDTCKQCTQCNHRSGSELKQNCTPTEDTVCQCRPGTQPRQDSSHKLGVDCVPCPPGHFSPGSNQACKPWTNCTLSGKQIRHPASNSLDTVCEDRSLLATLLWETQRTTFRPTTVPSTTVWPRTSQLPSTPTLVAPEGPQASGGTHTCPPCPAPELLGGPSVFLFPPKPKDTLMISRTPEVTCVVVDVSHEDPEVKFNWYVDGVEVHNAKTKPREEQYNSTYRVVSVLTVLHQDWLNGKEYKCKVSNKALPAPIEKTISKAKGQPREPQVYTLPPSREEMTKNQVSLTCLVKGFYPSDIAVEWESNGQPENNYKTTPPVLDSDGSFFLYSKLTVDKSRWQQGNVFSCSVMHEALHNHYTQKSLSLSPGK
Method: These constructs were expressed in HEK293-EBNA1 cells and purified using protein A. Then, human and rat OX40-Fc were tested in ELISA and Biacore to determine antibody cross-reactivity. For the ELISA, 96 well-microtiter plates (Costar USA, distributor VWR AG, Nyon, Switzerland) were coated with 100 μl of recombinant human or rat OX40-Fc at 2 μg/ml in PBS. Plates were incubated overnight at 4° C. and were then blocked with PBS 2% BSA (Bovine Serum Albumine, PAA Laboratories, Pasching, Austria) at room temperature (RT) for one hour. The blocking solution was removed and the purified antibodies were added at 10 μg/ml in PBS 2% BSA. The plates were incubated at RT for 1 hour, then washed 5 times with PBS 0.01% Tween-20 (Sigma-Aldrich Chemie GmbH, Buchs, Switzerland). […] Plates were incubated for 1 hour at RT, washed 5 times with PBS 0.01% Tween-20 and the TMB substrate (Bio-rad Laboratories AG, Reinach, Switzerland) was added to the plates and the reaction stopped after 5 minutes by adding H₂SO₄. Absorbance was then read at 450 nm by a microplate reader (Biotek, USA; distributor: WITTEC AG, Littau, Switzerland). Biacore experiments were specifically conducted with Hexa-hzG3V9 and Hexa-hz1D10v1 which are dAb-Fc fusion proteins. […] Binding of human and cyno OX40-Fc molecules was determined by successively injecting these proteins on the 4 flow-paths (flow-path 1 and 3 being used as references) at a concentration of 200 nM and a flow rate of 30 uL/min for 240 seconds. Regeneration between the two injections was done using 3M MgCl2, at 30 uL/min for 60 seconds. Using these two approaches, human/rat OX40 binding was assessed (table 16).

[2] = biological target: recombinant CD40 molecule (R&D) (UniProt P25942 21-193); experiment: direct ELISA on coated recombinant CD40, detection streptavidin-HRP, absorbance 450 nm [panel CD40]
recombinant CD40 molecule (R&D), sequence (P25942 21-193 limits assumed): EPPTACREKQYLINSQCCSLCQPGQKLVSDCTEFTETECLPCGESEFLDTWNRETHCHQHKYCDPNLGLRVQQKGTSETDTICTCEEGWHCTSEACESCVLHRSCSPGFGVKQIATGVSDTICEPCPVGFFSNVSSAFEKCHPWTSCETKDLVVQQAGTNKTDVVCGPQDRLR
Method: as §1, §2

[3] = biological target: T2, recombinant GITR molecule (R&D) (UniProt Q9Y5U5 26-161); experiment: direct ELISA on coated recombinant GITR, detection streptavidin-HRP, absorbance 450 nm [panel GITR]
T2 sequence (looked up): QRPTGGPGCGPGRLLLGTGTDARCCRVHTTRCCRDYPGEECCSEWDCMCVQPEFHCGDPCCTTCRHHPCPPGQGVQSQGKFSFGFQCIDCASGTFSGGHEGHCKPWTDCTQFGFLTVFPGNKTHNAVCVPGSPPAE
Method: as §1, §2

[4] = biological target: T3, recombinant DR6 molecule (R&D) (UniProt O75509 42-349, limits assumed); experiment: direct ELISA on coated recombinant DR6, detection streptavidin-HRP, absorbance 450 nm [panel DR6]
T3 sequence (looked up): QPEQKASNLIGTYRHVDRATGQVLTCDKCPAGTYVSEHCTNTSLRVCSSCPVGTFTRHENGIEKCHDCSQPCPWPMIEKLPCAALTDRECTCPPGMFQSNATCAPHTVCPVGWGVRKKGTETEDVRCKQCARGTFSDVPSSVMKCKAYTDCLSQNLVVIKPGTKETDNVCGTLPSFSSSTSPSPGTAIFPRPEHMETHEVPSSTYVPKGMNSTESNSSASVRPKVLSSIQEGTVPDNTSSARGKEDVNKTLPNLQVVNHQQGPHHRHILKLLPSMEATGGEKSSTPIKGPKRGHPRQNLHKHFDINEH
Method: as §1, §2

[5] = biological target: T4, recombinant human OX40-his protein (human, UniProt P43489 29-214); experiment: SPR, antibody captured on Protein A, OX40-his injected
T4 construct: Secreted via the native signal peptide, which lies within residues 1-214; also called Human OX40R-His; histidine tagged human OX40 receptor extracellular domain
T4 sequence: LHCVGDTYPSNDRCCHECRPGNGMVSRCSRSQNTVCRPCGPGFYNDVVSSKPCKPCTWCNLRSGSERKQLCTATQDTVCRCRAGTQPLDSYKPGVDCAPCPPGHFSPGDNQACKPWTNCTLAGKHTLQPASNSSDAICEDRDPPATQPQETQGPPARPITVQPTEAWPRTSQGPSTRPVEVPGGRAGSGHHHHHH
Method: (§3) Measurements were performed on CM5 sensor chips (Biacore 2000, GE Healthcare Europe GmbH, Cat. No: BR-1000-14) individually coupled with Protein A (Sigma, Buchs, Switzerland, Cat. No: P7837) using a commercial amine coupling kit (GE Healthcare Europe GmbH, Cat. No: BR-1000-50). 200-600 RUs of humanized antibody were captured. Dilution series of OX40-his were injected at a flow rate of 10 μl/min in HBS-EP buffer (GE Healthcare Europe GmbH, Cat. No: BR1001-88). After each binding event, the surface was regenerated with 10 μl of glycine buffer pH 1.5. Experimental data were processed using a 1:1 Langmuir model with local Rmax. The dissociation time was about 7 min. Measurements were performed in duplicates or triplicates and included zero-concentration samples for referencing. Both Chit and residual values were used to evaluate the quality of a fit between the experimental data and individual binding models.
Finally, Surface Plasmon Resonance analyses were applied to control antibody variant affinities as described earlier.

[6] = biological target: T4, recombinant human OX40-his protein; experiment: as above; remark: listed apart in the source
Method: as §3
Humanized antibody candidates were then assayed for their binding affinity by SPR and Fab thermal stability by DSC.

[7] = biological target: T4, recombinant human OX40-his protein; experiment: SPR (BIAcore 2000), antibody captured on Protein A, OX40-his injected
Method: SPR analysis was used to measure the association and dissociation rate constants for the binding kinetics of the anti-OX40 antibodies. The binding kinetics were measured on a BIAcore 2000 (BIAcore-GE Healthcare Europe GmbH, Glattbrugg, Switzerland) at room temperature and analyzed with the BiaEvaluation software (v4.1, GE Healthcare Europe GmbH).
as §3

human OX40 on cells [8] = biological target: T5, human OX40 on cells (human, UniProt P43489 29-277); experiment: flow cytometry on HPB-ALL cells, 10 µg/ml antibody
T5 construct: whole, on cells; also called OX40 on HPB-ALL cells
T5 sequence (looked up): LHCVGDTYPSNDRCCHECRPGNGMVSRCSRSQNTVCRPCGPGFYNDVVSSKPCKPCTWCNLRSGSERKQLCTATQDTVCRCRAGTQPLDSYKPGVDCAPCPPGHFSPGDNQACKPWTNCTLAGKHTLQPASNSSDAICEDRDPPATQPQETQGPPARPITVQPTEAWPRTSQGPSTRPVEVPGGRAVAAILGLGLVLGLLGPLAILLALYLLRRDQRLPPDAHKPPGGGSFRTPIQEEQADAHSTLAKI
Method: HPB-ALL cells (DSMZ, Braunschweig, Germany, Cat. No: ACC483) were used as a human OX40 positive cell line for FACS staining. HPB-ALL were maintained in RPMI 1640 supplemented with 10% FCS and 100 U/ml Penicillin and 100 μg/ml streptomycin. 4×10e5 HPB-ALL cells in FACS buffer (PBS supplemented with 1% BSA and 0.1% sodium azide) were incubated for 45 min on ice with the anti-OX40 antibody of interest kept at a concentration of 10 μg/ml An irrelevant human IgG1 was used as an isotype control; the cells were incubated with a 1/200 dilution of anti-Human Fc-PE (EBioscience, Vienna, Austria) for 45 min on ice. Cells were then washed again and resuspended in 200 μl FACS buffer. The relative mean fluorescence of each sample was measured on a FACSCalibur instrument (BD Biosciences, Allschwil, Switzerland).
A first set of 16 humanized antibodies of human gamma one isotype were prepared. These first humanized candidates were assessed for transient expression in HEK293E cells and binding to HB-ALL cell by flow cytometry (Table 7).

human OX40 on cells [9] = biological target: T5, human OX40 on cells; experiment: cell-based or functional assay
human OX40 on cells [10] = biological target: T5, human OX40 on cells; experiment: cell-based or functional assay; remark: listed apart in the source
human OX40 on cells [11] = biological target: T5, human OX40 on cells; experiment: cell-based or functional assay; remark: listed apart in the source

B1: 7H11 IgG1 (Humanized 7H11-VH2 N58K-D54E with 7H11 VL1) (antibody, V domains shown)
VH: QVQLVQSGAEVKKPGASVKVSCKASGYTFTRYYMHWVRQAPGQGLEWMGWIYPGEGSTKYAQKFQGRVTMTRDTSISTAYMELSRLRSDDTAVYYCAREYGNYDYWGQGTLVTVSS
VL: DIVMTQSPDSLAVSLGERATINCKSSQSLLNSGNQKNYLAWYQQKPGQPPKLLIYGASTRESGVPDRFSGSGSGTDFTLTISSLQAEDVAVYYCQNDHSYPYTFGQGTKLEIKR
notes: also called 7H11_v8 IgG1
B1: no binding (tested: 10 µg/ml) [1]; no binding (tested: 10 µg/ml) (rat OX40-Fc); no binding (tested: 10 µg/ml) [2]. B1: no binding (tested: 10 µg/ml) [3]; no binding (tested: 10 µg/ml) [4].

B2: Humanized 7H11-VH2 N58K-D54S (antibody, human IgG1, kappa, V domains shown)
VH: QVQLVQSGAEVKKPGASVKVSCKASGYTFTRYYMHWVRQAPGQGLEWMGWIYPGSGSTKYAQKFQGRVTMTRDTSISTAYMELSRLRSDDTAVYYCAREYGNYDYWGQGTLVTVSS
VL: DIVMTQSPDSLAVSLGERATINCKSSQSLLNSGNQKNYLAWYQQKPGQPPKLLIYGASTRESGVPDRFSGSGSGTDFTLTISSLQAEDVAVYYCQNDHSYPYTFGQGTKLEIKR
notes: human IgG1, kappa; also called 7H11 VH D54S
B2 gave a Kd [5] of 49 nM.

B3: Humanized 7H11-VH2 N58K-D54T (antibody, human IgG1, kappa, V domains shown)
VH: QVQLVQSGAEVKKPGASVKVSCKASGYTFTRYYMHWVRQAPGQGLEWMGWIYPGTGSTKYAQKFQGRVTMTRDTSISTAYMELSRLRSDDTAVYYCAREYGNYDYWGQGTLVTVSS
VL: DIVMTQSPDSLAVSLGERATINCKSSQSLLNSGNQKNYLAWYQQKPGQPPKLLIYGASTRESGVPDRFSGSGSGTDFTLTISSLQAEDVAVYYCQNDHSYPYTFGQGTKLEIKR
notes: human IgG1, kappa; also called 7H11 VH D54T
For B3, the Kd [5] was 32 nM.

B4: Humanized 7H11 VH2 V37M/VL1 (antibody, human IgG1, kappa, V domains shown)
VH: QVQLVQSGAEVKKPGASVKVSCKASGYTFTRYYMHWMRQAPGQGLEWMGWIYPGDGSTNYAQKFQGRVTMTRDTSISTAYMELSRLRSDDTAVYYCAREYGNYDYWGQGTLVTVSS
VL: DIVMTQSPDSLAVSLGERATINCKSSQSLLNSGNQKNYLAWYQQKPGQPPKLLIYGASTRESGVPDRFSGSGSGTDFTLTISSLQAEDVAVYYCQNDHSYPYTFGQGTKLEIKR
notes: human IgG1, kappa
In the case of B4, the Kd [6] is reported as 2.87 nM.

B5: Chimeric 7H11 IgG1 (antibody, V domains shown)
VH: QVQLQQSGPELVKPGASVKMSCKASGYTFTRYYIHWMNQRPGQGLEWIGWIYPGDGSTKYNEKFKGKTTLTADTSSSTAYMLLSSLTSEDSAIYFCAREYGNYDYWGQGTTVTVSS
VL: DIVMTQSPSSLSVSAGEKVTMSCKSSQSLLNSGNQKNYLAWYQQKPGQPPKLLIYGASTRESGVPDRFTGSGSGTDFTLTISSVQAEDLAVYYCQNDHSYPYTFGGGTKLEIK
notes: Mouse variable domains on human IgG1 heavy constant domains and human kappa constant domain; also called 7H11 (chimeric); chimeric 7H11 antibody
In the case of B5, the Kd [7] is reported as 50 nM, the koff [7] is reported as 0.00066 s⁻¹ and the kon [7] is reported as 11600 M⁻¹ s⁻¹. The Kd [6] was 50 nM and the MFI (human OX40 on cells [8]) was 132.

B6: recombinant human OX40L-Fc protein (Fc fusion, not shown: a dimerising Fc or GST; small tags and cut ends)
chain: QVSHRYPRIQSIKVQFTEYKKEKGFILTSQKEDEIMKVQNNSVIINCDGFYLISLKGYFSQEVNISLHYQKDEEPLFQLKKVRSVNSLMVASLTYKDKVYLNVTTDNTSLDDFHVNGGELILIHQNPGEFCVL
For B6, the “Mean (fold increase proliferation vs control), MLR assay” value (human OX40 on cells [9]) was 1.54 fold, the “donors reaching a 1.2 fold induction of CD4+CD25+ cells compared to SEB only” value (human OX40 on cells [10]) was 67% and the “% donor responder (>2), SEB assay, IL-2 release” value (human OX40 on cells [11]) was 83%. The “Mean, normalized IL-2 release, SEB assay” value (human OX40 on cells [11]) was 4.26.
